In the supplement of paper PMC5998384:

Key:
HeLa Kyoto [1] = experiment: solubility change mitosis vs G1/S (difference of NP-40 vs SDS log2 ratios) (log2 ratio difference); higher = more soluble in mitosis
HeLa Kyoto [2] = experiment: melting temperature (median over replicates), in situ; higher = more thermally stable
HeLa Kyoto [3] = experiment: solubility in G1/S (NP-40 vs SDS abundance) (log2 ratio); higher = more soluble; settings: cell cycle stage: G1/S
HeLa Kyoto [4] = experiment: thermal stability score vs G1/S (z-score of summed log2 fold changes over temperatures); higher = more thermally stable than in G1/S
[5] = cell cycle stage: early G1 (4.5 h after nocodazole release)
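For melting temperature (median over replicates), in situ in this document: HeLa Kyoto cells synchronized by double thymidine or nocodazole block, proteins quantified by TMT10plex mass spectrometry, three independent biological replicates.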
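For solubility change mitosis vs G1/S (difference of NP-40 vs SDS log2 ratios) in this document: synchronized HeLa Kyoto cells (double thymidine block for G1/S, nocodazole release for mitosis), protein amounts in NP-40 versus SDS lysates quantified by mass spectrometry, three biological replicates.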
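For solubility in G1/S (NP-40 vs SDS abundance) in this document: HeLa Kyoto cells arrested at G1/S by double thymidine block, proteins quantified by TMT10plex mass spectrometry in mild NP-40 versus SDS extracts, three biological replicates.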
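For thermal stability score vs G1/S (z-score of summed log2 fold changes over temperatures) in this document: synchronized HeLa Kyoto cells, proteins quantified by TMT10plex mass spectrometry, three biological replicates, mitosis taken 0.5 h after nocodazole release, G1/S directly after double thymidine block.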

| Sequence | solubility change mitosis (log2) (HeLa Kyoto [1]) | melting temperature (HeLa Kyoto [2]; cell cycle stage: G1/S) [°C] | melting temperature (HeLa Kyoto [2]; cell cycle stage: mitosis) [°C] | solubility in G1/S (log2) (HeLa Kyoto [3]) | thermal stability score (HeLa Kyoto [4]; [5]) | thermal stability score (HeLa Kyoto [4]; cell cycle stage: mitosis) |
| --- | --- | --- | --- | --- | --- | --- |
| MNGDSRAAVVTSPPPTTAPHKERYFDRVDENNPEYLRERNMAPDLRQDFNMMEQKKRVSMILQSPAFCEELESMIQEQFKKGKNPTGLLALQQIADFMTTNVPNVYPAAPQGGMAALNMSLGMVTPVNDLRGSDSIAYDKGEKLLRCKLAAFYRLADLFGWSQLIYNHITTRVNSEQEHFLIVPFGLLYSEVTASSLVKINLQGDIVDRGSTNLGVNQAGFTLHSAIYAARPDVKCVVHIHTPAGAAVSAMKCGLLPISPEALSLGEVAYHDYHGILVDEEEKVLIQKNLGPKSKVLILRNHGLVSVGESVEEAFYYIHNLVVACEIQVRTLASAGGPDNLVLLNPEKYKAKSRSPGSPVGEGTGSPPKWQIGEQEFEALMRMLDNLGYRTGYPYRYPALREKSKKYSDVEVPASVTGYSFASDGDSGTCSPLRHSFQKQQREKTRWLNSGRGDEASEEGQNGSSPKSKTKWTKEDGHRTSTSAVPNLFVPLNTNPKEVQEMRNKIREQNLQDIKTAGPQSQVLCGVVMDRSLVQGELVTASKAIIEKEYQPHVIVSTTGPNPFTTLTDRELEEYRREVERKQKGSEENLDEAREQKEKSPPDQPAVPHPPPSTPIKLEEDLVPEPTTGDDSDAATFKPTLPDLSPDEPSEALGFPMLEKEEEAHRPPSPTEAPTEASPEPAPDPAPVAEEAAPSAVEEGAAADPGSDGSPGKSPSKKKKKFRTPSFLKKSKKKSDS [ADD1] | 0.0666 | 55.2 | 55.1 | 0.119 | -4.45 | -3.29 |
| MNGKRPAEPGPARVGKKGKKEVMAEFSDAVTEETLKKQVAEAWSRRTPFSHEVIVMDMDPFLHCVIPNFIQSQDFLEGLQKELMNLDFHEKYNDLYKFQQSDDLKKRREPHISTLRKILFEDFRSWLSDISKIDLESTIDMSCAKYEFTDALLCHDDELEGRRIAFILYLVPPWDRSMGGTLDLYSIDEHFQPKQIVKSLIPSWNKLVFFEVSPVSFHQVSEVLSEEKSRLSISGWFHGPSLTRPPNYFEPPIPRSPHIPQDHEILYDWINPTYLDMDYQVQIQEEFEESSEILLKEFLKPEKFTKVCEALEHGHVEWSSRGPPNKRFYEKAEESKLPEILKECMKLFRSEALFLLLSNFTGLKLHFLAPSEEDEMNDKKEAETTDITEEGTSHSPPEPENNQMAISNNSQQSNEQTDPEPEENETKKESSVPMCQGELRHWKTGHYTLIHDHSKAEFALDLILYCGCEGWEPEYGGFTSYIAKGEDEELLTVNPESNSLALVYRDRETLKFVKHINHRSLEQKKTFPNRTGFWDFSFIYYE [OGFOD1] | -0.151 | 53.1 | 53.6 | -0.0197 | 1.93 | 0.186 |
| MNGRADFREPNAEVPRPIPHIGPDYIPTEEERRVFAECNDESFWFRSVPLAATSMLITQGLISKGILSSHPKYGSIPKLILACIMGYFAGKLSYVKTCQEKFKKLENSPLGEALRSGQARRSSPPGHYYQKSKYDSSVSGQSSFVTSPAADNIEMLPHYEPIPFSSSMNESAPTGITDHIVQGPDPNLEESPKRKNITYEELRNKNRESYEVSLTQKTDPSVRPMHERVPKKEVKVNKYGDTWDE [OCIAD1] | 0.225 | 55.9 | 53.1 | 0.219 | -1.09 | -4.47 |
| MNHSERFVFIAEWYDPNASLLRRYELLFYPGDGSVEMHDVKNHRTFLKRTKYDNLHLEDLFIGNKVNVFSRQLVLIDYGDQYTARQLGSRKEKTLALIKPDAISKAGEIIEIINKAGFTITKLKMMMLSRKEALDFHVDHQSRPFFNELIQFITTGPIIAMEILRDDAICEWKRLLGPANSGVARTDASESIRALFGTDGIRNAAHGPDSFASAAREMELFFPSSGGCGPANTAKFTNCTCCIVKPHAVSEGLLGKILMAIRDAGFEISAMQMFNMDRVNVEEFYEVYKGVVTEYHDMVTEMYSGPCVAMEIQQNNATKTFREFCGPADPEIARHLRPGTLRAIFGKTKIQNAVHCTDLPEDGLLEVQYFFKILDN [NME7] | 0.0736 | 48.9 | 48.8 | -0.32 | 0.587 | 0.668 |
| MNIRNARPEDLMNMQHCNLLCLPENYQMKYYFYHGLSWPQLSYIAEDENGKIVGYVLAKMEEDPDDVPHGHITSLAVKRSHRRLGLAQKLMDQASRAMIENFNAKYVSLHVRKSNRAALHLYSNTLNFQISEVEPKYYADGEDAYAMKRDLTQMADELRRHLELKEKGRHVVLGAIENKVESKGNSPPSSGEACREEKGLAAEDSGGDSKDLSEVSETTESTDVKDSSEASDSAS [NAA10] | -0.0427 | 53.4 | 53.1 | 0.263 | -0.13 | -1.02 |
